Experimental data published in the supplement of paper PMC9116672.
± gives the standard deviation of the averaged measurements or the uncertainty stated by the source.

Key:
[1] = duplex melting temperature (HRM, EvaGreen); higher = more stable duplex
Experimental: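 Listed DNA strand annealed 1:1 with its complementary strand (95 °C 5 min, 0.1 °C/s to 20 °C). Melted in 1x NNE buffer (500 mM NaCl, 10 mM Na2HPO4, 1 mM EDTA, pH 7.0) with 1x EvaGreen on a LightCycler96 (37 to 97 °C, 0.1 °C/s). Tm is the peak of -dF/dT at the stated total duplex concentration; 4 replicates are averaged. PS oligos are non-stereospecific (Rp/Sp mixtures).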

[2] = duplex formation free energy ΔG50 (Van't Hoff fit of HRM Tm); higher = less stable duplex; details: temperature for dG: 50 °C, NaCl: 500 mM (unadjusted)
Experimental: (§1)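 Duplex of the listed DNA strand with its complement, in 1x NNE buffer (500 mM NaCl, pH 7.0) with 1x EvaGreen. ΔH and ΔS come from a Van't Hoff linear fit of 1/Tm against ln(CT/4) over 1-20 uM, using HRM Tm values.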

[3] = duplex formation enthalpy ΔH (Van't Hoff fit of HRM Tm); higher = less exothermic duplex formation; details: temperature for dG: 50 °C, NaCl: 500 mM (unadjusted)
Experimental: as §1

[4] = duplex formation entropy ΔS (Van't Hoff fit of HRM Tm); higher = smaller entropy loss on duplex formation; details: temperature for dG: 50 °C, NaCl: 500 mM (unadjusted)
Experimental: as §1

[5] = duplex concentration 1 µM, backbone: PS-PO (listed strand fully phosphorothioate, complement phosphodiester)
[6] = duplex concentration 1 µM, backbone: PS-PS (both strands fully phosphorothioate)
[7] = duplex concentration 2.5 µM, backbone: PO-PO (both strands phosphodiester DNA)
[8] = duplex concentration 2.5 µM, backbone: PS-PO (listed strand fully phosphorothioate, complement phosphodiester)
[9] = duplex concentration 2.5 µM, backbone: PS-PS (both strands fully phosphorothioate)
[10] = duplex concentration 5 µM, backbone: PO-PO (both strands phosphodiester DNA)
[11] = duplex concentration 5 µM, backbone: PS-PO (listed strand fully phosphorothioate, complement phosphodiester)
[12] = duplex concentration 5 µM, backbone: PS-PS (both strands fully phosphorothioate)
[13] = duplex concentration 7.5 µM, backbone: PO-PO (both strands phosphodiester DNA)
[14] = duplex concentration 7.5 µM, backbone: PS-PO (listed strand fully phosphorothioate, complement phosphodiester)
[15] = duplex concentration 7.5 µM, backbone: PS-PS (both strands fully phosphorothioate)
[16] = duplex concentration 10 µM, backbone: PO-PO (both strands phosphodiester DNA)
[17] = duplex concentration 10 µM, backbone: PS-PO (listed strand fully phosphorothioate, complement phosphodiester)
[18] = duplex concentration 10 µM, backbone: PS-PS (both strands fully phosphorothioate)
[19] = duplex concentration 15 µM, backbone: PO-PO (both strands phosphodiester DNA)
[20] = duplex concentration 15 µM, backbone: PS-PO (listed strand fully phosphorothioate, complement phosphodiester)
[21] = duplex concentration 15 µM, backbone: PS-PS (both strands fully phosphorothioate)
[22] = duplex concentration 20 µM, backbone: PO-PO (both strands phosphodiester DNA)
[23] = duplex concentration 20 µM, backbone: PS-PO (listed strand fully phosphorothioate, complement phosphodiester)
[24] = duplex concentration 20 µM, backbone: PS-PS (both strands fully phosphorothioate)
[25] = backbone: PO-PO (both strands phosphodiester DNA)
[26] = backbone: PS-PO (listed strand fully phosphorothioate, complement phosphodiester)
[27] = backbone: PS-PS (both strands fully phosphorothioate)
[28] = duplex concentration 1 µM, backbone: PO-PO (both strands phosphodiester DNA)

Sequence	duplex melting temperature [1, 5] [°C]	duplex melting temperature [1, 6] [°C]	duplex melting temperature [1, 7] [°C]	duplex melting temperature [1, 8] [°C]	duplex melting temperature [1, 9] [°C]	duplex melting temperature [1, 10] [°C]	duplex melting temperature [1, 11] [°C]	duplex melting temperature [1, 12] [°C]	duplex melting temperature [1, 13] [°C]	duplex melting temperature [1, 14] [°C]	duplex melting temperature [1, 15] [°C]	duplex melting temperature [1, 16] [°C]	duplex melting temperature [1, 17] [°C]	duplex melting temperature [1, 18] [°C]	duplex melting temperature [1, 19] [°C]	duplex melting temperature [1, 20] [°C]	duplex melting temperature [1, 21] [°C]	duplex melting temperature [1, 22] [°C]	duplex melting temperature [1, 23] [°C]	duplex melting temperature [1, 24] [°C]	duplex formation free energy ΔG50 [2, 25] [kJ/mol]	duplex formation free energy ΔG50 [2, 26] [kJ/mol]	duplex formation free energy ΔG50 [2, 27] [kJ/mol]	duplex formation enthalpy ΔH [3, 25] [kJ/mol]	duplex formation enthalpy ΔH [3, 26] [kJ/mol]	duplex formation enthalpy ΔH [3, 27] [kJ/mol]	duplex formation entropy ΔS [4, 25] [cal/mol/K]	duplex formation entropy ΔS [4, 26] [cal/mol/K]	duplex formation entropy ΔS [4, 27] [cal/mol/K]	duplex melting temperature [1, 28] [°C]
AGCACGGTGGTACAACA	60.27 ± 0.38	50.09 ± 0.18	67.58 ± 0.38	63.2 ± 0.2	53.82 ± 0.069	69.83 ± 0.28	65.28 ± 0.1	56.17 ± 0.085	71.17 ± 0.15	66.25 ± 0.082	57.1 ± 0.12	72.2 ± 0.18	67.06 ± 0.081	57.92 ± 0.08	73.4 ± 0.13	68.18 ± 0.11	59.07 ± 0.11	74.39 ± 0.17	69.05 ± 0.15	59.74 ± 0.13	-53.7 ± 0.711	-51.16 ± 0.389	-41.39 ± 0.314	-298 ± 10.9	-329 ± 8.37	-283 ± 14.6	-181 ± 7.5	-205 ± 5.8	-179 ± 11	–
AGCTGAGCCTGCCGCC	65.9 ± 0.78	61.14 ± 0.19	77.27 ± 0.16	69.3 ± 0.33	64.02 ± 0.13	78.56 ± 0.24	71.58 ± 0.18	66.05 ± 0.17	79.697 ± 0.042	72.92 ± 0.22	67.37 ± 0.12	80.57 ± 0.19	73.99 ± 0.21	68.22 ± 0.11	81.65 ± 0.17	75.27 ± 0.28	69.27 ± 0.11	82.38 ± 0.13	76.21 ± 0.3	70.31 ± 0.28	-70.1 ± 1.63	-54.58 ± 0.418	-51.43 ± 0.326	-411 ± 19.2	-289 ± 6.69	-315 ± 6.69	-252 ± 13	-174 ± 4.5	-195 ± 4.6	–
AGGAGTGAATGAAATGG	54.5	43.7 ± 0.16	62.1 ± 0.68	57.08 ± 0.11	46.44 ± 0.17	64.64 ± 0.23	59.096 ± 0.041	48.39 ± 0.29	65.704 ± 0.056	60.13 ± 0.11	49.32 ± 0.19	66.73 ± 0.088	61.02 ± 0.073	50.27 ± 0.12	68.03 ± 0.15	62.13 ± 0.11	51.3 ± 0.13	69.03 ± 0.084	62.93 ± 0.16	52.15 ± 0.22	-49 ± 0.46	-45.38 ± 0.209	-34.85 ± 0.0837	-292 ± 10	-326 ± 6.69	-307 ± 9.2	-179 ± 7	-208 ± 4.8	-201 ± 6.7	59.4
ATAACTTACTCTCGCCT	53.9	47.36 ± 0.27	65.26 ± 0.45	56.75 ± 0.23	50.73 ± 0.41	67.07 ± 0.61	59 ± 0.16	53.03 ± 0.18	68.39 ± 0.58	60.21 ± 0.15	54.3 ± 0.082	69.34 ± 0.46	61.01 ± 0.18	55.17 ± 0.085	70.85 ± 0.28	62.23 ± 0.12	56.32 ± 0.24	72.01 ± 0.25	63.109 ± 0.04	57.138 ± 0.039	-53.2 ± 1.21	-44.57 ± 0.176	-38.86 ± 0.13	-326 ± 22.6	-301 ± 5.86	-271 ± 8.79	-201 ± 16	-190 ± 4	-172 ± 6.5	63.6 ± 0.52
CAAACTTAGTAATCACGCCCAGCAACCA	71.41 ± 0.5	62.3 ± 0.89	79.54 ± 0.39	72.56 ± 0.53	64.34 ± 0.43	80.55 ± 0.61	73.83 ± 0.46	65.81 ± 0.35	81.42 ± 0.21	74.22 ± 0.47	66.74 ± 0.11	82.09 ± 0.11	74.81 ± 0.22	67.319 ± 0.064	82.922 ± 0.079	75.66 ± 0.16	67.904 ± 0.048	83.591 ± 0.062	76.275 ± 0.049	68.51 ± 0.1	-88.1 ± 3.1	-79.5 ± 2.18	-58.3 ± 0.711	-591 ± 35.1	-625 ± 31.4	-468 ± 14.6	-372 ± 24	-404 ± 22	-303 ± 10	78.3 ± 0.4
CAAGCCTCGATTTTGT	–	46.56 ± 0.31	64.39 ± 0.47	56.69 ± 0.17	50.11 ± 0.18	66.83 ± 0.17	58.85 ± 0.28	52.41 ± 0.077	68.04 ± 0.08	60.19 ± 0.34	53.632 ± 0.045	68.83 ± 0.17	60.95 ± 0.27	54.55 ± 0.083	70.12 ± 0.2	62.25 ± 0.24	55.802 ± 0.033	71.17 ± 0.15	63.14 ± 0.43	56.6 ± 0.35	-51.43 ± 0.46	-44.46 ± 0.218	-38.27 ± 0.117	-304 ± 8.79	-298 ± 6.69	-264 ± 8.79	-186 ± 6	-188 ± 4.9	-167 ± 6.5	–
CACAGCGACATGTATGG	59.17 ± 0.49	51.1 ± 0.65	68.17 ± 0.38	61.71 ± 0.23	54.15 ± 0.059	70.03 ± 0.34	63.56 ± 0.32	56.02 ± 0.1	71.11 ± 0.17	64.61 ± 0.28	56.91 ± 0.12	72.07 ± 0.21	65.347 ± 0.065	57.68 ± 0.091	73.27 ± 0.14	66.45 ± 0.11	58.539 ± 0.051	74.18 ± 0.2	67.43 ± 0.1	59.3 ± 0.12	-57.2 ± 0.669	-50.48 ± 0.247	-42.35 ± 0.297	-352 ± 10.5	-347 ± 5.86	-335 ± 14.6	-218 ± 7.4	-220 ± 4.1	-216 ± 10	66.351 ± 0.017
CCACTAGCGGCGCCGTT	67.57 ± 0.56	62.65 ± 0.14	78.31 ± 0.24	70.82 ± 0.38	65.52 ± 0.13	80.05 ± 0.14	73 ± 0.26	67.54 ± 0.18	81.18 ± 0.29	74.33 ± 0.2	68.59 ± 0.13	81.87 ± 0.19	75.285 ± 0.053	69.501 ± 0.06	83.03 ± 0.12	76.37 ± 0.18	70.49 ± 0.094	83.58 ± 0.28	77.3 ± 0.13	71.36 ± 0.16	-71.1 ± 1.51	-57.4 ± 0.711	-53.57 ± 0.406	-406 ± 16.7	-314 ± 10.5	-334 ± 7.53	-247 ± 11	-190 ± 7.2	-207 ± 5.3	–
CGGCGCGCTG	–	44.8 ± 1.1	66.4	–	47 ± 1.1	67.7 ± 0.9	64.9 ± 1.3	50 ± 1.2	69.25 ± 0.52	66.2 ± 0.84	–	70.35 ± 0.13	67.43 ± 0.12	–	70.84 ± 0.39	68.41 ± 0.079	–	72.07 ± 0.61	69.27 ± 0.21	–	–	–	–	–	–	–	–	–	–	–
GGACGGCGTT	–	39.971 ± 0.0066	–	–	43 ± 0.68	–	–	47.59 ± 0.14	–	–	50.3 ± 1.2	63.65 ± 0.51	–	50.8 ± 1.5	64.94 ± 0.51	61.1 ± 0.49	53.7 ± 0.47	65.94 ± 0.2	62.78 ± 0.33	53.7	–	–	–	–	–	–	–	–	–	–
